OD405 as percent of wild-type CD14 OD data for five substances are collected here from US20030114377A1.

In test [1] the target is soluble CD14 AVEVE deletion mutant (residues 35-39 of SEQ ID NO: 1 deleted) (human) (UniProt P08571). Kind of test: ELISA, mutant CD14 coated, biotinylated mAb; grade = OD as % of wild-type CD14 (++ 51-75%).
For test [2], the target named is soluble CD14 DDED deletion mutant (residues 9-12 of SEQ ID NO: 1 deleted) (human) (UniProt P08571). Kind of test: ELISA, mutant CD14 coated, biotinylated mAb; grade = OD as % of wild-type CD14 (++++ >90%). A general note: ELISA stands for enzyme-linked immunosorbent assay.
The target of test [3] is soluble CD14 DDED/PQPD double deletion mutant (residues 9-12 and 22-25 of SEQ ID NO: 1 deleted) (human) (UniProt P08571). The description is as above.
Test [4] deals with soluble CD14 DPRQY deletion mutant (residues 59-63 of SEQ ID NO: 1 deleted) (human) (UniProt P08571). Described as above.
The target in test [5] is soluble CD14 PQPD deletion mutant (residues 22-25 of SEQ ID NO: 1 deleted) (human) (UniProt P08571). As to the kind of experiment: ELISA, mutant CD14 coated, biotinylated mAb; grade = OD as % of wild-type CD14 (+++ 76-90%).
The target in test [6] is soluble CD14 DDED deletion mutant (residues 9-12 of SEQ ID NO: 1 deleted) (human) (UniProt P08571). The test is described as above.
Test [7] deals with soluble CD14 DDED/PQPD double deletion mutant (residues 9-12 and 22-25 of SEQ ID NO: 1 deleted) (human) (UniProt P08571). The description is as above.
Test [8] deals with soluble CD14 DPRQY deletion mutant (residues 59-63 of SEQ ID NO: 1 deleted) (human) (UniProt P08571). Kind of test: ELISA, mutant CD14 coated, biotinylated mAb; grade = OD as % of wild-type CD14 (++ 51-75%).
Test [9] addresses soluble CD14 DDED deletion mutant (residues 9-12 of SEQ ID NO: 1 deleted) (human) (UniProt P08571). Kind of test: ELISA, mutant CD14 coated, biotinylated mAb; grade = OD as % of wild-type CD14 (+ 11-50%).
Test [10] deals with soluble CD14 PQPD deletion mutant (residues 22-25 of SEQ ID NO: 1 deleted) (human) (UniProt P08571). Described as above.

In the case of anti-CD14 monoclonal antibody 63D3, the OD405 as percent of wild-type CD14 OD is 51 to 75% in test [1]; over 90% in test [2]; over 90% in test [3]; over 90% in [4]; 76 to 90% in [5].

Consider anti-CD14 monoclonal antibody MEM-18, for which the OD405 as percent of wild-type CD14 OD in [1] fell in the range of 51 to 75%; in [6], 76 to 90%; in test [7], 76 to 90%; in [5] it was 76 to 90%.

Consider anti-CD14 monoclonal antibody MO-2, for which the OD405 as percent of wild-type CD14 OD in [8] lay in the range of 51 to 75%.

In test [4], anti-CD14 monoclonal antibody MY4 returned an OD405 as percent of wild-type CD14 OD of over 90%.

anti-CD14 monoclonal antibody UCHM-1: the values for the OD405 as percent of wild-type CD14 OD in test [9], in test [10] and in [4] were 11 to 50%, 11 to 50% and over 90%, respectively.
